According to the supplement of paper PMC9170038:

Tested on: MS2 coat protein
Assay: apparent KD of MS2 coat protein; designed switch direction (-1 OFF switch, 1 ON switch): -1; higher = weaker reporter binding
Procedure, shortened: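 Three titration conditions were used: no input, 200 uM small-molecule ligand, and an oligonucleotide input. In each, SNAP-549-labelled MS2 coat protein was raised from 0.7 or 1.5 nM, doubling, to 3 µM over designed RNA switches transcribed on Illumina chips by stalled E. coli RNA polymerase. Curve fits of normalised cluster fluorescence gave values whose per-design median over clusters is the apparent KD.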

[1] = input ligand: microRNA oligo, concentration not stated
[2] = Eterna round: R95, input ligand: FMN 200 uM
[3] = Eterna round: R95, input ligand: microRNA oligo, concentration not stated
[4] = Eterna round: R95, input ligand: none

AGUCAGGCGGUAGGAUAUCCAAACCGAGUGACCCUUUCAUAACAUGAGGAUCACCCAUGUCGGUGGGAGAAGGGCCGUACGGCG [JL ViennaUCT Atra mod 2] (Eterna round: R96, puzzle: Exclusion NG 2)
apparent KD of MS2 coat protein (input ligand: FMN 200 uM): 305 nM | apparent KD of MS2 coat protein [1]: 145 nM | apparent KD of MS2 coat protein (input ligand: none): 343 nM

GACUAAAUGUGGUUUGGUUACAUGAGGAUCACCCAUGUUGGUCUAAGAACAUGUCUUUUGUACGCUUGUCUUAUAUA [JR_SV3TOV1_Sub067] (puzzle: Sensor v3, turn-off variant 1)
apparent KD of MS2 coat protein [2]: 630 nM | apparent KD of MS2 coat protein [3]: 324 nM | apparent KD of MS2 coat protein [4]: 896 nM

GGCAUCGGAGGAUAUAUUUAUGGUGAUACCCGAAGCUUUCUACUUGAGGAUCACCCAAGUAGAAGGCCGAUGCC [jl-ex2.4.82 ViennaUCT mod] (Eterna round: R97, puzzle: Exclusion 2)
apparent KD of MS2 coat protein (input ligand: FMN 200 uM): 17.4 nM | apparent KD of MS2 coat protein (input ligand: none): 10.9 nM

GUUAAACAUGAGGAUCACCCAUGUAAGGAUAUGCUGAGGUCGCGCUGACGUGAAUGAAGCAGAAGGUACAAAUG [Mat - Mod of JL D63] (puzzle: Exclusion 1)
apparent KD of MS2 coat protein [2]: 79.5 nM | apparent KD of MS2 coat protein [3]: 76.7 nM | apparent KD of MS2 coat protein [4]: 60.8 nM

ACAUGAGGAUCACCCAUGUUUGGCUGGUUCUCUCCGGCUGUUGAGGAUAUAGUCCGGUAUCCGCGCUAGAAGGUGAGGGCUGGC [Aenatbe mod 7] (Eterna round: R96, puzzle: Exclusion NG 3)
apparent KD of MS2 coat protein (input ligand: FMN 200 uM): 13.5 nM | apparent KD of MS2 coat protein [1]: 15.8 nM | apparent KD of MS2 coat protein (input ligand: none): 24.2 nM

GUCACUAGAGGAUAUACAAUGGUAUAUGAUCCUAGAGACAAACAUGAGGAUCACCCAUGUAGAAGGCUAGUAUU [Exclusion 2 - 4] (puzzle: Exclusion 2)
apparent KD of MS2 coat protein [3]: 93.4 nM

GGUUAGAUGGUAGGAUAUCCAUAUCGAGUGACCCUUUCAUAACAUGAGGAUCACCCAUGUCGGUGGGAGAAGGGCCGUACGGCG [salish99_ExNG02_R04_011] (Eterna round: R96, puzzle: Exclusion NG 2)
apparent KD of MS2 coat protein (input ligand: FMN 200 uM): 35.5 nM | apparent KD of MS2 coat protein [1]: 38.3 nM | apparent KD of MS2 coat protein (input ligand: none): 33.2 nM

UAGAUGGGAGGAUAUACGUAGAUGCGGAUUCGUGUGGUGCUACAUGAGGAUCACCCAUGUAGAAGGCCCGUCUU [JL-ex2-2.25 Mayanne mod] (puzzle: Exclusion 2)
apparent KD of MS2 coat protein [3]: 15.6 nM

CAAAAGCUAGGAUAUCGUAAACAAGACAUGAGGAUCACCCAUGUGUCCGUGGCUGACCUCCGAGAAGGAGCAAUAU [Bilate] (puzzle: Exclusion 5)
apparent KD of MS2 coat protein [2]: 23.6 nM | apparent KD of MS2 coat protein [3]: 16.8 nM | apparent KD of MS2 coat protein [4]: 18.6 nM

GCUGUGAAUCAGGAUAUGCGGAUAAAGAGUGCCGCAGAAGGGAUAACAUGAGGAUCACCCAUGUUCCUGCAUGA [Eternabot (L2) Solution 99] (Eterna round: R97, puzzle: Exclusion 6)
apparent KD of MS2 coat protein (input ligand: FMN 200 uM): 26.5 nM | apparent KD of MS2 coat protein (input ligand: none): 20.9 nM

AAGAUGCGGAUAGGAUAUGGAGAGAAAGAAAGACCAGAAGGAUUGGUCAUAUAACAUGAGGAUCACCCAUGUAUAUGUUGUGAA [AK ExNG1-3.2] (Eterna round: R96, puzzle: Exclusion NG 1)
apparent KD of MS2 coat protein [1]: 13 nM

AUAACGUAGCGAGGAUAUACGCGAGAUCGUUGCGUAGAAGGUGUAUCGUUGGACUUGAGGAUCACCCAAGUGAUGAGUCCUUCC [Mutated MS2 EX1.20] (Eterna round: R96, puzzle: Exclusion NG 1)
apparent KD of MS2 coat protein (input ligand: FMN 200 uM): 43.8 nM | apparent KD of MS2 coat protein [1]: 34.7 nM | apparent KD of MS2 coat protein (input ligand: none): 40.7 nM

GAUUAUGCGAGCUUUAGGGACAUGAGGAUCACCCAUGUUCGUCUUAUUAAUCUGGGUACACUGGCAUACCUAAAUCU [JMF 7] (puzzle: Sensor v3, turn-off variant 1)
apparent KD of MS2 coat protein [2]: 26.7 nM | apparent KD of MS2 coat protein [3]: 37.7 nM | apparent KD of MS2 coat protein [4]: 28.1 nM

AUAUUACAUGAGGAUCACCCAUGUGAGGAUAUGGAGAGAGACCGCCCGGUCGCGUACACCAGAAGGCGCAGGCG [1st #60] (Eterna round: R97, puzzle: Exclusion 1)
apparent KD of MS2 coat protein (input ligand: FMN 200 uM): 19.8 nM | apparent KD of MS2 coat protein (input ligand: none): 21.2 nM

GAGGAGCAAGGAUAUACGAGGAUAUGGAAGGUUGGAGAGUGACAUGAGGAUCACCCAUGUAGAAGGUGCAAGGG [JR_Exclu2_Sub096] (puzzle: Exclusion 2)
apparent KD of MS2 coat protein [2]: 65.9 nM | apparent KD of MS2 coat protein [3]: 91.8 nM | apparent KD of MS2 coat protein [4]: 131 nM

UCUUAGUCAGGAUAUACAUGAGGAUCACCCAUGUAAAAUUUUAAUUUAAUUUUAAGGUGUAGAAGGGACCACCU [Ex3 #18] (Eterna round: R97, puzzle: Exclusion 3)
apparent KD of MS2 coat protein (input ligand: FMN 200 uM): 19.2 nM | apparent KD of MS2 coat protein (input ligand: none): 23.4 nM

UAUUCUAGAUAGGAUAUACUUUUUUUUUUUUUCGUAGAAGGAUCUACAUGAGGAUCACCCAUGUUAACAGCAGU [JR_E6_Sub010] (puzzle: Exclusion 6)
apparent KD of MS2 coat protein [2]: 66.5 nM | apparent KD of MS2 coat protein [3]: 51.6 nM | apparent KD of MS2 coat protein [4]: 40.4 nM

GCGCGGCGUGUAGGAUAUGCGCGCGGGUCGCGCGCAGAAGGACAUGAGGAUCACCCAUGUGGCGCGCUUGGCGCGCCGCCGCGC [-48, -45 kcal and 14% A] (Eterna round: R96, puzzle: Exclusion NG 1)
apparent KD of MS2 coat protein (input ligand: FMN 200 uM): 16.6 nM | apparent KD of MS2 coat protein [1]: 9.64 nM | apparent KD of MS2 coat protein (input ligand: none): 12.9 nM

GUAGGGUCAGGAUAUACGGGCGGAGGGAUGUAUUGUAGUUGGUAGAAGGGACAUGAGGAUCACCCAUGUAAGAA [JR_Exclu4_Sub055] (puzzle: Exclusion 4)
apparent KD of MS2 coat protein [3]: 25.3 nM

GACGAAAGAGGAUAUACCGUACGACCCUCGUCAGGGAUCCGACAUGAGGAUCACCCAUGUAGAAGGCUUGCGUC [Eternabot (Original) Solution 25] (Eterna round: R97, puzzle: Exclusion 2)
apparent KD of MS2 coat protein (input ligand: FMN 200 uM): 763 nM | apparent KD of MS2 coat protein (input ligand: none): 200 nM

AUCGUGCAGCUUUGCUGUACGAGUACAUGAGGAUCACCCAUGUAGGAUAUGGUACGCUUUGCGUGCUAGAAGGAUAUGCGAUUG [EX ENG3 1.46] (Eterna round: R96, puzzle: Exclusion NG 3)
apparent KD of MS2 coat protein [1]: 36.5 nM

GUUAAACAUGAGGAUCACCCAUGUAAGGAUAUGCUGCGGUCGCGAUGACGUGACUGCAGCAGAAGGUACAAAUG [Mat - Mod of JL D58] (puzzle: Exclusion 1)
apparent KD of MS2 coat protein [3]: 69.7 nM

UAUACACAUGAGGAUCACCCAUGUGAGGAUAUGUUAAUUUUAAUGAAAAUUAAAAUUAACAGAAGGCACAUAUA [JR_Exclusion1_Sub025] (puzzle: Exclusion 1)
apparent KD of MS2 coat protein [3]: 67.2 nM

UUGUUAUAUGUAGGAUAUGCAUAUUAUUAUUAUGCAGAAGGACAUGAGGAUCACCCAUGUGUAUUAUUAUUAUAUAUUAUAUAU [Title] (Eterna round: R96, puzzle: Exclusion NG 1)
apparent KD of MS2 coat protein [1]: 17.4 nM

AGUCCUGAUGUUAGGAUAUGCAACUAGCCAUUGUAGCAGAAGGAACAUGAGGAUCACCCAUGUACAAAGACCCA [Xeonbera] (puzzle: Brourd's mod of Exclusion 4)
apparent KD of MS2 coat protein [3]: 26.6 nM

UAGUGGGUACGAAGGAGUAGUUUGAGCGUACGUUCUGUAACAUGAGGAUCACCCAUGUAGCUUUUUGCUCGACUUAU [JR_SV3TOV2_Sub037] (puzzle: Sensor v3, turn-off variant 2)
apparent KD of MS2 coat protein [2]: 28.9 nM | apparent KD of MS2 coat protein [3]: 55.7 nM | apparent KD of MS2 coat protein [4]: 29.4 nM

ACUUGUUGUCCUUGAUAUUACAUGAGGAUCACCCAUGUUAUUGUGAUUAUGAUGUGUAAGUUUGUUGCUCGUUUUAU [JR_STOV1_Sub066] (Eterna round: R97, puzzle: Sensor, turn-off variant 1)
apparent KD of MS2 coat protein (input ligand: FMN 200 uM): 84.7 nM | apparent KD of MS2 coat protein (input ligand: none): 84 nM
